We go through one molecule from patent US20130095092A1.

For this assay, the target named is Mannose 6-phosphate receptor (M6P receptor) on human MPS IIIB (NaGlu deficient) fibroblasts (human), P11717. The experiment in a line: cell-based or functional assay.
Chain of Mannose 6-phosphate receptor (M6P receptor) on human MPS IIIB (NaGlu deficient) fibroblasts (human), P11717 (P11717 41-2491): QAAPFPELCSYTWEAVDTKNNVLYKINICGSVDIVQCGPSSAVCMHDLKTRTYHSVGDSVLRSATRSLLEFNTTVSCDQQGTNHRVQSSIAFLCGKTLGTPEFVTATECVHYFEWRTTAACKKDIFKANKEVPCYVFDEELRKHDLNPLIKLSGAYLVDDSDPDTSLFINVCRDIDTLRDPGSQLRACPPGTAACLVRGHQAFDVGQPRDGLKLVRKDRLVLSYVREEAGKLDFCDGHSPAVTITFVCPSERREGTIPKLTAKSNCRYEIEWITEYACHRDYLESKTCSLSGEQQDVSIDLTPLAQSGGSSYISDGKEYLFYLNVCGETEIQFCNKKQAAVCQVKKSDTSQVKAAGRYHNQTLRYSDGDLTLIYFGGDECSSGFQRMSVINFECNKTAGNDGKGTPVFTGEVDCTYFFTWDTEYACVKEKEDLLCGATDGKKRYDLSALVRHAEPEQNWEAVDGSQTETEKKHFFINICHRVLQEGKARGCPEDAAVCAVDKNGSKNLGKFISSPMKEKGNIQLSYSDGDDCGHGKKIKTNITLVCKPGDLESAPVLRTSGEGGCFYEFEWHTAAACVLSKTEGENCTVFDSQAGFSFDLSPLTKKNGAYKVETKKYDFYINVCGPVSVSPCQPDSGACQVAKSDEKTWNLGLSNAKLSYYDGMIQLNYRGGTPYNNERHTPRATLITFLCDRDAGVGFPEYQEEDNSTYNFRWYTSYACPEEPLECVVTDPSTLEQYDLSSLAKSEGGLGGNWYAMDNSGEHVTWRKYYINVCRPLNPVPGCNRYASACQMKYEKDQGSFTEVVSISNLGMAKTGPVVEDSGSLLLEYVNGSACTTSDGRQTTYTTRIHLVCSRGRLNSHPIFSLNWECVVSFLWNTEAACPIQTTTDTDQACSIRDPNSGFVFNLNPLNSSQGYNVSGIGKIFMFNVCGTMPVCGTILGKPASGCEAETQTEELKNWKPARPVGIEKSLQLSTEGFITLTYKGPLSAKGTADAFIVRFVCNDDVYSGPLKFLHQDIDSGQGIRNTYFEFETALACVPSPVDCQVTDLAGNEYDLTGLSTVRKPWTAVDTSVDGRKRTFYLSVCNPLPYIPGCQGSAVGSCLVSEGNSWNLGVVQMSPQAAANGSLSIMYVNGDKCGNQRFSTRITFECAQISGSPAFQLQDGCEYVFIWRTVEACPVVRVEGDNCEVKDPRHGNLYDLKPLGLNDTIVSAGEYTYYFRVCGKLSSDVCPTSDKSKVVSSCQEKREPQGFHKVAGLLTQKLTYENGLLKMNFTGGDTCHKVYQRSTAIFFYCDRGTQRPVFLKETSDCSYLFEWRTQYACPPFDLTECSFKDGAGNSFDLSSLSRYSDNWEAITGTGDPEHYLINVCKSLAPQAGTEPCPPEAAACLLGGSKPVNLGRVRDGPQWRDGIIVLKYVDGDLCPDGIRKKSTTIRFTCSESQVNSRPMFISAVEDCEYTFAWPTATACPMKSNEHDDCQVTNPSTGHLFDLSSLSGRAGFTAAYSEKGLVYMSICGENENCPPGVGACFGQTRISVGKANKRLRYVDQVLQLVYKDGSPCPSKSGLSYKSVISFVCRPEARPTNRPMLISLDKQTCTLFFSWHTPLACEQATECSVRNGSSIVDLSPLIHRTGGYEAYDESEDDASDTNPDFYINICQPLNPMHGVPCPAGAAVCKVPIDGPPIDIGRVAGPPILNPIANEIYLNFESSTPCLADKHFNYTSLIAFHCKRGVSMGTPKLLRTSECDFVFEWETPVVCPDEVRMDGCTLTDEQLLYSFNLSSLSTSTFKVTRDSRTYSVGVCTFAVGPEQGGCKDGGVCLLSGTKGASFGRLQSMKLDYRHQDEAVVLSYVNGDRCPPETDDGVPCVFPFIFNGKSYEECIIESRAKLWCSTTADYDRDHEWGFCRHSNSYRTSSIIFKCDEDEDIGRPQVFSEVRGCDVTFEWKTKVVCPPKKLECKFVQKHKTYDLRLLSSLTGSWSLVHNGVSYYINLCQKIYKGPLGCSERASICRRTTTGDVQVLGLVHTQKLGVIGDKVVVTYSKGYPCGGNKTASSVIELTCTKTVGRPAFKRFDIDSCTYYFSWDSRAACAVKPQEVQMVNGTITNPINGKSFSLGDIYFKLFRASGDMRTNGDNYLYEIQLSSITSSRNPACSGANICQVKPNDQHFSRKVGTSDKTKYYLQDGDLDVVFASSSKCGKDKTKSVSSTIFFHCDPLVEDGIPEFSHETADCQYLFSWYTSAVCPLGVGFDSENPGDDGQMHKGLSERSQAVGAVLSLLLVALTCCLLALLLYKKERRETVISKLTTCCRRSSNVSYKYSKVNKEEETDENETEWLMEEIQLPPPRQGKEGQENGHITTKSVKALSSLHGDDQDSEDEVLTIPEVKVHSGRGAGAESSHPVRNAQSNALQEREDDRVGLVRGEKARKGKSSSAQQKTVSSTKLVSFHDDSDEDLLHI

B1: recombinant human N-acetyl-alpha-D-glucosaminidase (rhNaGlu) produced from a transgenic avian (Gallus), P54802 24-743 (enzyme)
chain: DEAREAAAVRALVARLLGPGPAADFSVSVERALAAKPGLDTYSLGGGGAARVRVRGSTGVAAAAGLHRYLRDFCGCHVAWSGSQLRLPRPLPAVPGELTEATPNRYRYYQNVCTQSYSFVWWDWARWEREIDWMALNGINLALAWSGQEAIWQRVYLALGLTQAEINEFFTGPAFLAWGRMGNLHTWDGPLPPSWHIKQLYLQHRVLDQMRSFGMTPVLPAFAGHVPEAVTRVFPQVNVTKMGSWGHFNCSYSCSFLLAPEDPIFPIIGSLFLRELIKEFGTDHIYGADTFNEMQPPSSEPSYLAAATTAVYEAMTAVDTEAVWLLQGWLFQHQPQFWGPAQIRAVLGAVPRGRLLVLDLFAESQPVYTRTASFQGQPFIWCMLHNFGGNHGLFGALEAVNGGPEAARLFPNSTMVGTGMAPEGISQNEVVYSLMAELGWRKDPVPDLAAWVTSFAARRYGVSHPDAGAAWRLLLRSVYNCSGEACRGHNRSPLVRRPSLQMNTSIWYNRSDVFEAWRLLLTSAPSLATSPAFRYDLLDLTRQAVQELVSLYYEEARSAYLSKELASLLRAGGVLAYELLPALDEVLASDSRFLLGSWLEQARAAAVSEAEADFYEQNSRYQLTLWGPEGNILDYANKQLAGLVANYYTPRWRLFLEALVDSVAQGIPFQQHQFDKNVFQLEQAFVLSKQRYPSQPRGDTVDLAKKIFLKYYPRWVAGSW
modifications: here or on the partner: glycosylated; glycans carry mannose-6-phosphate (3.2 moles of M6P per mole of protein), glycosylation sites not stated
Consider B1, for which the M6P inhibition assay: concentration of free M6P monosaccharide that inhibits uptake of 30 µg/mL rhNaGlu into MPS IIIB fibroblasts (enzymatic activity) is over 0.03 mM; the M6P inhibition assay: inhibition of cellular uptake of 30 µg/mL rhNaGlu into MPS IIIB fibroblasts by 1 mM free M6P (% inhibition of uptake) was over 90; the NaGlu activity in MPS IIIB fibroblasts after 24 h uptake of rhNaGlu, relative to wild-type fibroblasts (% of wild-type activity) is 50.
